B1: murine anti-fHbp monoclonal antibody 12C1 (IgG2b) (antibody, V domains shown)
VH: QVQLQESGPELVKPGASVKISCKASGYSFSDYNMSWVKQSNGKSLEWIGIIDPKYGTINYNQKFKGKATLTVDQASSTAYMQLNSLTSEDSAVYYCVRDYYGSSYFDYWGQGTTLTVSS
VL: DIVLTQSPSSIYASLGERVTLTCKASQDIHNYLNWFQQKPGKSPKTLIYRANRLVDGVPSRFSGGGSGQDYSLTISSLEFEDIGIYYCLQYDEFPPTFGGGTRLEIK
notes: also called mAb 12C1

Experiments:
[1] = biological target: murine anti-fHbp monoclonal antibody JAR5 (IgG2b) (mouse); experiment: SPR
[2] = biological target: T1, factor H binding protein (fHbp) variant 1.1, wild type (Neisseria meningitidis serogroup B …, UniProt Q9JXV4); experiment: SPR; fHbp covalently immobilised by amine coupling on a CM5 chip (~500 RU); mAbs at 100 nM in HBS-EP injected one after the other (first mAb to saturation, then the second), both orders; 25 °C; conditions: both partners purified
T1 construct: source: E. coli BL21(DE3), purified

murine anti-fHbp monoclonal antibody JAR5 (IgG2b) (mouse), sequence (heavy, as listed by the source, chain 1 of 2, other chains not shown): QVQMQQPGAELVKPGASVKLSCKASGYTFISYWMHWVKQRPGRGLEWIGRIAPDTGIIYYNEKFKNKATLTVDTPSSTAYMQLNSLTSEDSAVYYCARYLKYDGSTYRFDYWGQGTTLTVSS

Molecule	Kd [1] [nM]	binding result [2]
fHbp variant 1.1 Gln115Ala mutant (natural protein)	23	–
fHbp variant 1.1 Asp85Ala mutant (natural protein)	20	–
fHbp variant 1.1 Lys122Ala mutant (natural protein)	17	–
fHbp variant 1.1 Gln87Ala mutant (natural protein)	1.7	–
fHbp variant 1.1 Gly121Ala mutant (natural protein)	20	–
fHbp variant 1.1 Lys122Ser mutant (natural protein)	13	–
B1	–	binds
